Source: patent US12534540B2, “CYP1A1-targeted monoclonal antibody with reactivity across vertebrate taxa” (Clemson University Research Foundation, priority 2023, dated 2026)
Like-named read-outs stand apart in the source and are kept apart here.

What was measured:
CYP1A [1] = test: Tissue immunohistochemistry, rainbow trout liver; conditions: rainbow trout treated with 3-NF; FIG. 3 panels G and H
Method: (§1) Grossly dissected archived tissues (fixed and stored at 4° C. in 70% ethanol) were processed and embedded in ParaPlast Extra. Newly embedded tissues were then sectioned and affixed to charged slides for immunohistochemistry. Mouse liver tissues used for this study were from previous studies wherein mice were exposed to 1 mg/kg PCB-126 prior to tissue fixation. Archived rainbow trout livers (and microsomes stored at −80° C. from beta-naphthoflavone ([…])-treated animals from a previous study (Rice et al. 1998 Mar. environ. Res. 46:87-91) were used for immunohistochemistry and immunoblotting. Archived liver tissue from Gulf killifish collected from sites affected by the Deepwater Horizon spill (DHOS) were analyzed for CYP1A alongside livers from a lab-held colony of CYP1A-recalcitrant Gulf killifish, which is used as a molecular control (naturally acquired CYP1A knockdown) (Oziolor et al. 2016 Aquat. Toxicol. 175:222-231). Finally, previously analyzed embryonic chicken livers exposed to airborne volatiles from DHOS oil were included for additional species comparison.
(§2) Zebrafish (strain AB) exposed to PCB-126 (Ulra Scientific) were also used for this study. Zebrafish were housed at the former Clemson Institute of Environmental Toxicology, Pendleton SC and maintained under Clemson University IACUC approved methods. […]

CYP1A [2] = target: T1, CYP1A (Mus musculus, UniProt P00184)
T1 sequence (P00184 1-524): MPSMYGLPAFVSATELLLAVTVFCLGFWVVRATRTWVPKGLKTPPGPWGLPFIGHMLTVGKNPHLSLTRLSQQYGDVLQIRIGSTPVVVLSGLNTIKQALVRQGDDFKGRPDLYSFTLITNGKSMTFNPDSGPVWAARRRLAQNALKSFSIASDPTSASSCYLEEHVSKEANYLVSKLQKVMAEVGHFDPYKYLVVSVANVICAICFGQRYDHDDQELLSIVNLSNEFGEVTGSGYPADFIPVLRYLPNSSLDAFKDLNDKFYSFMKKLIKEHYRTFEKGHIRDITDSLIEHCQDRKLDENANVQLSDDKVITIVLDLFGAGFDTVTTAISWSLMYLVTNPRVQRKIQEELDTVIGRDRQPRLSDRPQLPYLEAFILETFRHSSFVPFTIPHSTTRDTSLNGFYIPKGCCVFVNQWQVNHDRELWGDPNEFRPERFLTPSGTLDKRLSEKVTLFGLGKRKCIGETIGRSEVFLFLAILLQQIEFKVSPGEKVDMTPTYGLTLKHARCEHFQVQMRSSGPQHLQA
Method: as §1
(§3) Zebrafish (strain AB) exposed to PCB-126 (Ulra Scientific) were also used for this study. Zebrafish were housed at the former Clemson Institute of Environmental Toxicology, Pendleton SC and maintained under Clemson University IACUC approved methods. Two juvenile male and two juvenile female zebrafish (40 dpf) were exposed for 48 h to either 10 μM PCB-126 or 0.10% DMSO in 1 L glass bottles containing maintenance water from the recirculating system and supplied with gentle aeration. Following exposure, the 4 fish per treatment were euthanized on ice with buffered Tricaine®, their abdominal cavities opened, and placed in 10% aqueous buffered zinc formalin (Z-Fix, Anatech, Ltd., Battle Creek, MI, USA) for 2 days, and the fixative replaced with 70% ethanol and stored at 4° C. Prior to processing, zebrafish were decalcified in 0.35 M EDTA, pH 7.8 at room temperature (RT) for 6 days, then processed for microtomy as above. Fish and chicken tissue IHC was performed using a horse-anti-mouse IgG VectaLabs ABC-Elite kit (PK-6102), while mouse tissue IHC was performed using the mouse-on-mouse (M.O.M.) anti-mouse IgG VectaLabs ABC-Ultra kit (BMK-2202)
(§4) Whole zebrafish tissues were sectioned at 7-9 μm and mouse, trout, killifish, and chicken tissues were sectioned at 4-5 μm on a Microm 325 rotary microtome. […] Additional screening assays included isotype controls.

CYP1A [3] = test system: CYP1A
Method: as §1, §3, §4

[4] = test system: induced CYP1A1 across vertebrate taxa; format: binding
Method: Screening mAbs against cell line lysates: […] This medium also supports the growth of frog XLK-WG cells (ATCC, Manassas, VA, USA). Other cells and tissues used for testing and screening are outlined in Table 2. Arochlor 1254-induced and non-induced rat liver S9 fractions were thawed immediately upon receipt from the supplier and prepared for SDS-PAGE-immunoblotting by boiling for 7 min in reducing sample buffer (Thermo Fisher J61337.AD) containing 50 μM PMSF. Commercially sourced HEK cell lysates over-expressing recombinant human CYP1A1 (Origene, Rockville, MD, USA) were prepared similarly. […]-1, and HEPA1C1C7 cells were grown to near confluence in 6-well plates ([…], Corning). Plates seeded with ZFL cells and PLHC-1 cells were sealed with parafilm and kept in sealed containers to avoid external CO2. Cells were treated for 48 h with 10 μM PCB-126 (CAS 57465-28-8, Ultra Scientific) dissolved in DMSO or 0.01% DMSO as a carrier control. XLK-WG cells were grown to near confluence in sealed T-75 flasks, then treated for 12 h with 50 nM of the AHR ligand 6-Formylindolo [3,2-b] carbazole (FICZ) (CAS 172922-91-7, Tocris Biosciences, Bristol, UK) in DMSO or 0.01% DMSO, and again for an additional 12 h with the same. […] Overlying supernatants were removed and transferred to clean tubes and the protein content quantified. […]

[5] = target: core vertebrate CYP1A sequence IRDITSLI (SEQ ID NO:35) (Homo sapiens, UniProt P04798); test: ELISA against conserved core CYP1A peptide; format: binding; conditions: FIG. 1 panel B
Method: Using additional screening approaches, ELISAs were carried out to determine if either of the three mAbs would recognize the core vertebrate CYP1A sequence [sequence] (SEQ ID NO:35)). […] Based on the general rule of thumb that confluent supernatants contain approximately 30 μg/mL of specific antibody, a total of 60 μg of the peptide in 100 μL PBS as the highest concentration was serially diluted and 50 μL of each dilution were mixed with 50 μL confluent supernatants to yield 100 μL of total mixture for screening ELISA plates coated with the original zebrafish peptide. This mixture of hybridoma supernatant and peptide dilutions was allowed to incubate overnight at 4° C. The next day these mixtures of 100 μL total sample were mixed by gentle agitation and added to zebrafish CYP1A1 peptide-pre-coated ELISA plates and incubated for 2 h at RT. After extensive washings with PBST, the plates were incubated with goat anti-mouse IgG conjugated with alkaline phosphatase for 2 h, washed extensively, and developed and quantified at 405 nm and the data recorded.

CYP1A [6] = test: Tissue immunohistochemistry, Gulf killifish liver; conditions: crude oil-exposed adult gulf killifish vs genetically resistant population; FIG. 3 panels E and F
Method: as §1, §2

[7] = test system: zebrafish CYP1A peptide used for immunizations
zebrafish CYP1A peptide used for immunizations, sequence (as listed by the source): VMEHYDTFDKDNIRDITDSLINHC
Text: Primary hybridoma supernatants were then screened by ELISA against unconjugated peptide for a minimal signal of three-fold optical density readings above wells probed with an irrelevant antibody (mAb 3F9 against major vault protein), then cloned by limiting dilution for further testing.

B1: mAb CRC4: zebrafish CYP1A-targeted mouse monoclonal antibody; VH SEQ ID NO:17, VL SEQ ID NO:20, CDRs SEQ ID NOs:28-33 (antibody, V domains shown)
VH: QVTLKESGPGILQPSQTLSLTCSFSGFSLSTSGMGVNWIRKPSGKGLEWLAHIFWDDDKRYNPSLKSRLTISKDTSRNQVFLMITSVDTADTATYYCASLAMDYWGQGTSVTVSS
VL: DIVMTQGASSVTVTPGESVSISCRSSKSLLHSNGRTFLYWFLQRPGQSPQLLIYRMSNLASGVPDRVSGSGSGTAFTLRISRVEAEDVGVYYCMQHLEYPFTFGGGTRLELK
CYP1A [1]
  CYP1A staining intensity in liver by IHC: most intense staining
CYP1A [2]
  CYP1A detection in liver by IHC: easily detected in PCB-126-exposed mouse livers but not unexposed controls
CYP1A [3]
  CYP1A detection in liver by IHC: easily detected
  CYP1A staining intensity in liver by IHC: most intense staining
  staining after antigen retrieval: more favorable staining
  staining intensity of chicken tissues compared with mAb C10-7: same intensity as seen using mAb C10-7
[4]
  recognition of treatment-induced CYP1A protein by immunoblotting: recognized by mAb CRC4 across all vertebrate taxa examined
[5]
  recognition of core vertebrate CYP1A peptide by ELISA: recognized this peptide sequence
CYP1A [6]
  CYP1A detection in liver by IHC: easily detected in adult gulf killifish but not in individuals from a genetically resistant population
[7]
  ELISA reactivity against zebrafish CYP1A peptide (selection criteria): meeting selection criteria
